Data taken from patent US20230391826A1, “COMPOSITIONS AND METHODS FOR TREATING DISEASES” (Sanford Burnham Prebys Medical Discovery Institute, priority 2020, published 2023).
*1 amine or outer side, *2 acyl side, *3 side chain or, on linkers, in order; H or OH if unused. Where no end group is shown, it is not given here. [ ]: non-standard residue; d: D form. Ccam = carbamidomethyl-cysteine, NC(=O)CSC[C@H](N[*:1])C(=O)[*:2]; βAla = NCCC(=O)O

Assays:
[1] = target: EphA2 extracellular domain fused to the Fc portion of an antibody (EphA2-Fc); assay: ELISA, inhibition of ephrinA5-AP binding to immobilized EphA2-Fc; representative experiment, triplicates
[2] = target: EphA2 extracellular domain fused to the Fc portion of an antibody (EphA2-Fc); assay: ELISA, inhibition of ephrinA5-AP binding to immobilized EphA2-Fc

Sequence of EphA2 extracellular domain fused to the Fc portion of an antibody (EphA2-Fc) (P29317 whole entry, the tested form may be a part): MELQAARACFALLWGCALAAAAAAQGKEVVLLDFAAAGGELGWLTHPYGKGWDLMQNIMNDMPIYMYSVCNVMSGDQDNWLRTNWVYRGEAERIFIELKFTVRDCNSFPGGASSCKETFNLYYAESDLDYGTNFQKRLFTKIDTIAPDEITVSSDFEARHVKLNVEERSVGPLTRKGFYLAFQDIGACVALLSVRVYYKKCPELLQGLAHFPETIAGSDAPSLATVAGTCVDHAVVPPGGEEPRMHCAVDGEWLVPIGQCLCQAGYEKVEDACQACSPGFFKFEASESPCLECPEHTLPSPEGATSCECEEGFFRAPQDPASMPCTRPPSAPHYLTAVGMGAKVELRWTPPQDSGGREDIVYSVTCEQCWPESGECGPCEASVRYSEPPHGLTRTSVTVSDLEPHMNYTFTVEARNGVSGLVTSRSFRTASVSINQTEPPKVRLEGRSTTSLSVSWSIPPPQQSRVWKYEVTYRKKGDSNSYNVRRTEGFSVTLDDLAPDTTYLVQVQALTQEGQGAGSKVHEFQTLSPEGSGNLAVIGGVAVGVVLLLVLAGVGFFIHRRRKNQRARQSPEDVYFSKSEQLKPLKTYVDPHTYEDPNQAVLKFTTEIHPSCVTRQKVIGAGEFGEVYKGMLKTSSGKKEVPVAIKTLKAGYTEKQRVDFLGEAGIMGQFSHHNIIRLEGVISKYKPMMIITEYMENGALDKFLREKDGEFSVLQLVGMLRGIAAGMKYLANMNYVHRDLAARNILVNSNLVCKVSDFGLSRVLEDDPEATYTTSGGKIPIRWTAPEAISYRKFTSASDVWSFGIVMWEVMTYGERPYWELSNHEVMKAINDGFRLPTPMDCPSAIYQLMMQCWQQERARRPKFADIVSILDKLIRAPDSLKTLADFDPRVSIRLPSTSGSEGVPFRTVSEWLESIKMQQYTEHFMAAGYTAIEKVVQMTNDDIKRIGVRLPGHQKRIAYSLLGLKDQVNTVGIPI

| IC50 [1] [nM] | IC50 [2] [nM] | Binder |
| --- | --- | --- |
| 0.38 | 0.4 | [βAla]WLAYPDSVPYRPKGGAWLAYPDSVPYRPK-NH2 (N-terminus assumed; SMILES CC(C)C[C@H](NC(=O)[C@H](Cc1c[nH]c2ccccc12)NC(=O)CCN)C(=O)N[C@@H](C)C(=O)N[C@@H](Cc1ccc(O)cc1)C(=O)N1CCC[C@H]1C(=O)N[C@@H](CC(=O)O)C(=O)N[C@@H](CO)C(=O)N[C@H](C(=O)N1CCC[C@H]1C(=O)N[C@@H](Cc1ccc(O)cc1)C(=O)N[C@@H](CCCNC(=N)N)C(=O)N1CCC[C@H]1C(=O)N[C@@H](CCCCN)C(=O)NCC(=O)NCC(=O)N[C@@H](C)C(=O)N[C@@H](Cc1c[nH]c2ccccc12)C(=O)N[C@@H](CC(C)C)C(=O)N[C@@H](C)C(=O)N[C@@H](Cc1ccc(O)cc1)C(=O)N1CCC[C@H]1C(=O)N[C@@H](CC(=O)O)C(=O)N[C@@H](CO)C(=O)N[C@H](C(=O)N1CCC[C@H]1C(=O)N[C@@H](Cc1ccc(O)cc1)C(=O)N[C@@H](CCCNC(=N)N)C(=O)N1CCC[C@H]1C(=O)N[C@@H](CCCCN)C(N)=O)C(C)C)C(C)C) [linear dimer (head-to-tail)] |
| 0.58 | 0.54 | Click dimer (N-ter) (not fully specified; propargylglycine (Pra) at position 1, joined by a click linkage to KN3 of the other chain; C-terminal amide; azido-lysine (KN3) at position 1, joined by a click linkage to Pra of the other chain; C-terminal amide) peptide 1: KAWLAYPDSVPYRPK peptide 2: XGAWLAYPDSVPYRPK |
| 0.77 | 0.77 | Lys-linked dimer (C-ter) (also: bond at chain A 15 to a chain's C-terminus) peptide 1: [βAla]WLAYPDSVPYRPKK peptide 2: [βAla]WLAYPDSVPYRPK |
| 1300 | 1400 | [Ccam]GAWLAYPDSVPYR [CcamGA-WLA-YR] |
